Patent publication US5420243
Ends that are not written are not given here.

What was measured:
[1] = molecular target: L6 rat muscle myoblast TGF-β receptor (rat); assay: competition against 125I-TGF-β2 on L6 rat muscle myoblast TGF-β receptor (Example 5)
[2] = molecular target: L6 rat muscle myoblast TGF-β receptor (rat); assay: competition against 125I-TGF-β2 on L6 rat muscle myoblasts
[3] = molecular target: L6 rat muscle myoblast TGF-β receptor (rat); assay: competition against 125I-TGF-β2 on L6 rat muscle myoblasts; called apparent dissociation constant of approximately 3 µM in paragraph 85

Molecule	ED50 [2]	other results
TGF-β2 (from UniProt P61812) (ligand)		ED50 [1]: 0.06 nM
CLRPLYIDFKRDLGWK (also: disulfide-linked dimer) [TGF-β2 16-31 dimer]	30 µM	
CLRPLYIDFKRDLGWKWIHEPKGYNANFCAGA (also: dimer linked by a single disulfide bond, Cys pairing not settled) [TGF-β2 16-47 dimer]		ED50 [3]: 3 µM
CLRPLYIDFKRDLGWKWIHEPKGYNANFCAGA [TGF-β2 16-47 monomer]	30 µM	
